In the test the target is human serum albumin (human, UniProt P02768 25-609). The test is described as follows: cross-linking. As to conditions: both partners purified.

B1: M1 protein (amino acids 42–484), recombinant (domain or fragment)
chain: NGDGNPREVIEDLAANNPAIQNIRLRYENKDLKARLENAMEVAGRDFKRAEELEKAKQALEDQRKDLETKLKELQQDYDLAKESTSWDRQRLEKELEEKKEALELAIDQASRDYHRATALEKELEEKKKALELAIDQASQDYNRANVLEKELETITREQEINRNLLGNAKLELDQLSSEKEQLTIEKAKLEEEKQISDASRQSLRRDLDASREAKKQVEKDLANLTAELDKVKEDKQISDASRQGLRRDLDASREAKKQVEKDLANLTAELDKVKEEKQISDASRQGLRRDLDASREAKKQVEKALEEANSKLAALEKLNKELEESKKLTEKEKAELQAKLEAEAKALKEQLAKQAEELAKLRAGKASDSQTPDTKPGNKAVPGKGQAPQAGTKPNQNKAPMKETKRQLPSTGETANPFFTAAALTVMATAGVAAVVKRKEEN
notes: source: E. coli BL21 (DE3), purified (fibrinogen column, Ni-coupled Imac Sepharose)
Consider B1, for which the binding result is “binds”.
